Reference: patent US20210187118A1

Tests used:
[1] = target: TF-glycosylated PDTR MUC1 tandem repeat peptide …-T(TF)-…; assay: antigen ELISA on TF-glycosylated PDTR MUC1 peptide, protein A purified antibodies
[2] = target: Tn-glycosylated PDTR MUC1 tandem repeat peptide …-T(Tn)-…; assay: antigen ELISA on Tn-glycosylated PDTR MUC1 peptide, protein A purified antibodies
Sequence of Tn-glycosylated PDTR MUC1 tandem repeat peptide …-T(Tn)-… (peptide, as listed by the source limits assumed): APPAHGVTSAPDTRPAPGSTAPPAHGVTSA

Sequence of TF-glycosylated PDTR MUC1 tandem repeat peptide …-T(TF)-… (peptide, as listed by the source limits assumed): as above

EC50 (read off the curve) [1]: 8 ng/mL
EC50 (read off the curve) [2]: 10 ng/mL
Substance: PankoMab N54W (antibody)
